The text below walks through data of article PMC6426602, “Structure of Vibrio FliL, a New Stomatin-like Protein That Assists the Bacterial Flagellar Motor Function” (mBio, 2019).

Series [1] deals with the molecule itself. In words: crystal structure; FliLC crystal, space group P6(1), 2.1 Å, two molecules in the asymmetric unit; sitting drop at 20°C, protein 10 mg/ml in 20 mM Tris-HCl pH 8.0, 150 mM NaCl; reservoir 0.1 M sodium acetate pH 4.4, 22.5% PEG 4000, 0.2 M ammonium sulfate.
Series [2] deals with the molecule itself. In words: crystal structure; FliLPeri crystal, space group P4(2)2(1)2, 3.4 Å, 20 molecules in the asymmetric unit; sitting drop at 20°C, protein 70 mg/ml in 20 mM Tris-HCl pH 8.0, 150 mM NaCl; reservoir 0.1 M sodium acetate pH 6.0, 25% PEG 200, 0.15 M CaCl2, 1.4% EtOH.

B1: FliLC, trypsin-resistant core of the periplasmic region of polar FliL (residues 58 to 167) (domain or fragment, Vibrio alginolyticus, UniProt A0A7H8DP68 58-167, looked up)
chain: ASDAAPIAYVNLPQAFVFNVTGDSRDRLVQIKAQLMVRGAENEELARYHSPLIESSMLSTFASATVDQLRSPTGRVELRDRASEDIKAALNAAVGKPVIEKVLFTDFVIQ
notes: polar flagellar FliL of Vibrio alginolyticus, fragment of residues 58 to 167 left after trypsin digestion of FliLPeri; also called FliL_(58-167)
Consider B1, for which the binding result in series [1] is reported as “binds”.

B2: periplasmic region of polar FliL (FliLPeri) of Vibrio alginolyticus (domain or fragment, UniProt A0A7H8DP68 41-167, looked up)
chain: GSDEPAQAESSQQAQVKASDAAPIAYVNLPQAFVFNVTGDSRDRLVQIKAQLMVRGAENEELARYHSPLIESSMLSTFASATVDQLRSPTGRVELRDRASEDIKAALNAAVGKPVIEKVLFTDFVIQ
notes: polar flagellar FliL of Vibrio alginolyticus, periplasmic region, residues 41 to 167; Residues 41-57 are invisible in the map; also called His6-FliL_(Peri); copies: 10
Take B2: the “stoichiometry N” value in series [2] was 10 subunits in a ring.

Usually stoichiometry N stands for the number of molecules, sites or subunits per partner or assembly.
